Patent US20230295310A1 (ABCELLERA BIOLOGICS, published 2023)
Substitutions are numbered along the chain they refer to.

B1: GOMP001_bsAb_014 (bispecific antibody, human IgG1, kappa, L234A L235A)
heavy 1: QVQLVQSGAEVKKPGASVKVSCKASGYTFTSYDINWVRKATGQGLEWMGWMNPKSGKTGYAQEFQGRITMTRNTPISTVYMDLSSLRSEDTAVYYCAREGHYDFWTGYYSFDYWGQGTLVTVSSASTKGPSVFPLAPSSKSTSGGTAALGCLVADYFPEPVTVSWNSGALTSGVHTFPAVLQSSGLYSLSSVVTVPSSSLGTQTYICNVNHKPSNTKVDEKVEPKSCDKTHTCPPCPAPEAAGGPSVFLFPPKPKDTLMISRTPEVTCVVVDVSHEDPEVKFNWYVDGVEVHNAKTKPREEQYNSTYRVVSVLTVLHQDWLNGKEYKCKVSNKALPAPIEKTISKAKGQPREPQVYTLPPSREEMTDNQVSLTCLVKGFYPSDIAVEWESNGQPENNYKTTPPVLMSDGSFFLASKLTVDKSRWQQGNVFSCSVMHEALHNHYTQKSLSLSPG
light 1: RIQMTQSPSSLSASVGDRVTITCRASQGIRNDLGWYQDTPGKAPKRLIYAASSLQSGVPSRFSGSGSGTEFTLTISSLQPEDFATYYCLQHYSYPYTFGQGTKLEIKRTVAAPSVFIFPPSDKQLKSGTARVVCLLNNFYPREAKVQWKVDNALQSGNSQESVTEQDSKDSTYSLSSTLTLSKADYEKHKVYACEVTHQGLSSPVTKSFNRGEC
heavy 2: QVQLVQSGAEVKKPGASVKVSCKASGYTFTSHWMHWVRYAPGQGLEWIGEFNPSNGRTNYNEKFKSKATMTVDTSTNTAYMELSSLRSEDTAVYYCASRDYDYDGRYFDYWGRGTLVTVSSASTKGPSVFPLAPSSKSTSGGTAALGCLVKDYFPEPVTVSWNSGALTSGVHTFPAVLQSSGLYSLSSVVTVPSSSLGTQTYICNVNHKPSNTKVDKKVEPKSCDKTHTCPPCPAPEAAGGPSVFLFPPKPKDTLMISRTPEVTCVVVDVSHEDPEVKFNWYVDGVEVHNAKTKPREEQYNSTYRVVSVLTVLHQDWLNGKEYKCKVSNKALPAPIEKTISKAKGQPRRPRVYTLPPSREEMTKNQVSLVCLVKGFYPSDIAVEWESNGQPENNYKTTPPVLDSDGSFFLYSVLTVDKSRWQQGNVFSCSVMHEALHNHYTQKSLSLSPG
light 2: DIQMTQSPSSLSASVGDRVTITCSASSSVTYMYWYQRKPGDAPKLLIYDTSNLASGVPSRFSGSGSGTDYTFTISSLQPEDIATYYCQQWSSHIFTFGQGTKVEIKRTVAAPSVFIFPPSDEQLKSGTASVVCLLNNFYPREAKVQWKVDNALQSGNSQESVTEQDSKDSTYSLSSTLTLSKADYEKHKVYACEVTHQGLSSPVTKSFNRGEC
B2: GOMP001_bsAb_016 (bispecific antibody, human IgG1, kappa, L234A L235A)
heavy 1: QVQLVESGGGVVQPGRSLRLSCAASGFTFSGYGMHWVRKAPGKGLDWVAIIYYNGNNKYYADEVKGRFTISRDNSKNTLYLQMNSLRAEDTAVYYCARGGGYNWFDPWGQGTLVIVSSASTKGPSVFPLAPSSKSTSGGTAALGCLVADYFPEPVTVSWNSGALTSGVHTFPAVLQSSGLYSLSSVVTVPSSSLGTQTYICNVNHKPSNTKVDEKVEPKSCDKTHTCPPCPAPEAAGGPSVFLFPPKPKDTLMISRTPEVTCVVVDVSHEDPEVKFNWYVDGVEVHNAKTKPREEQYNSTYRVVSVLTVLHQDWLNGKEYKCKVSNKALPAPIEKTISKAKGQPREPQVYTLPPSREEMTDNQVSLTCLVKGFYPSDIAVEWESNGQPENNYKTTPPVLMSDGSFFLASKLTVDKSRWQQGNVFSCSVMHEALHNHYTQKSLSLSPG
light 1: RIQMTQSPSSLSASVGDRVTITCRPSQSISNYLNWYQDKPGKAPKLLIYAASSLQSGVPSRFSGSGSGTDFTLTISSLQPEDFATYYCQQSYSTPFTFGRGTRLEIKRTVAAPSVFIFPPSDKQLKSGTARVVCLLNNFYPREAKVQWKVDNALQSGNSQESVTEQDSKDSTYSLSSTLTLSKADYEKHKVYACEVTHQGLSSPVTKSFNRGEC
heavy 2: B1 heavy 2
light 2: B1 light 2
B3: GOMP001_bsAb_017 (bispecific antibody, human IgG1, kappa, L234A L235A)
heavy 1: QVQLVQSGAEVKKPGASVKVSCKASGYTFTSHWMHWVRKAPGQGLEWIGEFNPSNGRTNYNEEFKSKATMTVDTSTNTAYMELSSLRSEDTAVYYCASRDYDYDGRYFDYWGQGTLVTVSSASTKGPSVFPLAPSSKSTSGGTAALGCLVADYFPEPVTVSWNSGALTSGVHTFPAVLQSSGLYSLSSVVTVPSSSLGTQTYICNVNHKPSNTKVDEKVEPKSCDKTHTCPPCPAPEAAGGPSVFLFPPKPKDTLMISRTPEVTCVVVDVSHEDPEVKFNWYVDGVEVHNAKTKPREEQYNSTYRVVSVLTVLHQDWLNGKEYKCKVSNKALPAPIEKTISKAKGQPREPQVYTLPPSREEMTDNQVSLTCLVKGFYPSDIAVEWESNGQPENNYKTTPPVLMSDGSFFLASKLTVDKSRWQQGNVFSCSVMHEALHNHYTQKSLSLSPG
light 1: B1 light 2 with D1R, R37D, D41K, E122K, S130R
heavy 2: EVQLVESGGDLVQPGRSLRLSCAASGFTFDDCVIHWVRYAPGKGLEWVSGITWNSGRIGYADRVKGRFTISRDNAKNSLYLQMNSLRVEDTALYYCAKEGNYDFWSTYYRGYFDLWGRGTLVTVSSASTKGPSVFPLAPSSKSTSGGTAALGCLVKDYFPEPVTVSWNSGALTSGVHTFPAVLQSSGLYSLSSVVTVPSSSLGTQTYICNVNHKPSNTKVDKKVEPKSCDKTHTCPPCPAPEAAGGPSVFLFPPKPKDTLMISRTPEVTCVVVDVSHEDPEVKFNWYVDGVEVHNAKTKPREEQYNSTYRVVSVLTVLHQDWLNGKEYKCKVSNKALPAPIEKTISKAKGQPRRPRVYTLPPSREEMTKNQVSLVCLVKGFYPSDIAVEWESNGQPENNYKTTPPVLDSDGSFFLYSVLTVDKSRWQQGNVFSCSVMHEALHNHYTQKSLSLSPG
light 2: B1 light 1 with R1D, D38R, T39K, K42D, S56G, S60L, Y92N, K123E, R131S
B4: GOMP001_bsAb_015 (bispecific antibody, human IgG1, kappa, L234A L235A)
heavy 1: B3 heavy 1
light 1: B1 light 2 with D1R, R37D, D41K, E122K, S130R
heavy 2: QVQLVESGGGVVQPGRSLRLSCAASGFTFSGYGMHWVRYAPGKGLDWVAIIYYNGNNKYYADRVKGRFTISRDNSKNTLYLQMNSLRAEDTAVYYCARGGGYNWFDPWGRGTLVIVSSASTKGPSVFPLAPSSKSTSGGTAALGCLVKDYFPEPVTVSWNSGALTSGVHTFPAVLQSSGLYSLSSVVTVPSSSLGTQTYICNVNHKPSNTKVDKKVEPKSCDKTHTCPPCPAPEAAGGPSVFLFPPKPKDTLMISRTPEVTCVVVDVSHEDPEVKFNWYVDGVEVHNAKTKPREEQYNSTYRVVSVLTVLHQDWLNGKEYKCKVSNKALPAPIEKTISKAKGQPRRPRVYTLPPSREEMTKNQVSLVCLVKGFYPSDIAVEWESNGQPENNYKTTPPVLDSDGSFFLYSVLTVDKSRWQQGNVFSCSVMHEALHNHYTQKSLSLSPG
light 2: not shown
B5: GOMP001_bsAb_018 (bispecific antibody, human IgG1, kappa, L234A L235A)
heavy 1: EVQLVESGGDLVQPGRSLRLSCAASGFTFDDCVIHWVRKAPGKGLEWVSGITWNSGRIGYADEVKGRFTISRDNAKNSLYLQMNSLRVEDTALYYCAKEGNYDFWSTYYRGYFDLWGRGTLVTVSSASTKGPSVFPLAPSSKSTSGGTAALGCLVADYFPEPVTVSWNSGALTSGVHTFPAVLQSSGLYSLSSVVTVPSSSLGTQTYICNVNHKPSNTKVDEKVEPKSCDKTHTCPPCPAPEAAGGPSVFLFPPKPKDTLMISRTPEVTCVVVDVSHEDPEVKFNWYVDGVEVHNAKTKPREEQYNSTYRVVSVLTVLHQDWLNGKEYKCKVSNKALPAPIEKTISKAKGQPREPQVYTLPPSREEMTDNQVSLTCLVKGFYPSDIAVEWESNGQPENNYKTTPPVLMSDGSFFLASKLTVDKSRWQQGNVFSCSVMHEALHNHYTQKSLSLSPG
light 1: B1 light 1 with T39K, K42I, S56G, S60L, Y92N
heavy 2: B1 heavy 2
light 2: B1 light 2

Biological target: EGFR on HeLa cells (UniProt P00533 25-1210, limits assumed)
Assay: cell-based or functional assay

| X… HeLa EC50 | Binder | Max killing % |
| --- | --- | --- |
| 0.131 nM | B1 | 95% |
| 0.0192 nM | B2 | 92% |
| 0.705 nM | B3 | 91.4% |
| 0.179 nM | B4 | 100% |
| 0.111 nM | B5 | 97.3% |
